# Assay results published in patent publication US5885821.
# Tests used:
# [1] = target: chimeric protein βGal-139S(FM)PPH84 (E. coli; human)
# [2] = target: chimeric protein βGal-117S4HPPH34 (E. coli; human)
substance,measurement,setting,value
Kex2-660 (enzyme),recovery rate of hPTH(1-84) excised from the chimeric protein (HPLC),[1],75%
same,excision efficiency of hPTH(1-34) from the chimeric protein,[2],> 90%
